From PMC4220974, “Effect of the L499M mutation of the ascomycetous Botrytis aclada laccase on redox potential and catalytic properties” (Acta Crystallographica Section D: Biological Crystallography, 2014)

Experiments:
Assay in all cases: purified protein
Type in all cases: biochemical, Botrytis aclada
[1] = test system: CCn1c(=NN=c2sc3cc(S(=O)(=O)O)ccc3n2CC)sc2cc(S(=O)(=O)O)ccc21; conditions: pH 4.0, 100 mM citrate-phosphate, 30 °C, air-saturated, µ and ± signs lost in the table text (header reads M), apparent Km, also measured at pH 3, 5, 6
[2] = test system: COc1cccc(OC)c1O; conditions: pH 4.0, 100 mM citrate-phosphate, 30 °C, air-saturated, µ and ± signs lost in the table text (header reads M), apparent Km, also measured at pH 3, 5, 6
[3] = substrate: COc1cccc(OC)c1O; conditions: pH 4.0, 100 mM citrate-phosphate, 30 °C, air-saturated, apparent Km, also measured at pH 3, 5, 6
[4] = substrate: CCn1c(=NN=c2sc3cc(S(=O)(=O)O)ccc3n2CC)sc2cc(S(=O)(=O)O)ccc21; conditions: pH 4.0, 100 mM citrate-phosphate, 30 °C, air-saturated, µ and ± signs lost in the table text (header reads M), apparent Km, also measured at pH 3, 5, 6; remark: listed apart in the source

Molecule	Km [1] [µM]	Km [2] [µM]	Km [3] [µM]	Km [4] [µM]
BaL (Botrytis aclada laccase) (Botrytis aclada; L536M)	19.3 ± 1.0	80.8 ± 2.7		
BaL (Botrytis aclada laccase) (Botrytis aclada) (protein, full-length cDNA expressed in secreted form in Pichia pastoris X33; 543 residues; kinetics on glycosylated enzyme) SCANSATSRSCWGEYSIDTNWYDVTPTGVTREYWLSVENSTITPDGYTRSAMTFNGTVPGPAIIADWGDNLIIHVTNNLEHNGTSIHWHGIRQLGSLEYDGVPGVTQCPIAPGDTLTYKFQVTQYGTTWYHSHFSLQYGDGLFGPLIINGPATADYDEDVGVIFLQDWAHESVFEIWDTARLGAPPALENTLMNGTNTFDCSASTDPNCVGGGKKFELTFVEGTKYRLRLINVGIDSHFEFAIDNHTLTVIANDLVPIVPYTTDTLLIGIGQRYDVIVEANAAADNYWIRGNWGTTCSTNNEAANATGILRYDSSSIANPTSVGTTPRGTCEDEPVASLVPHLALDVGGYSLVDEQVSSAFTNYFTWTINSSSLLLDWSSPTTLKIFNNETIFPTEYNVVALEQTNANEEWVVYVIEDLTGFGIWHPIHLHGHDFFIVAQETDVFNSDESPAKFNLVNPPRRDVAALPGNGYLAIAFKLDNPGSWLLHCHIAWHASEGLAMQFVESQSSIAVKMTDTAIFEDTCANWNAYTPTQLFAEDDSGI			8.3 ± 0.7	14.0 ± 1.0
